This is an account of results in patent US12473560 (FLAGSHIP PIONEERING INNOVATIONS VI, dated 2025).

Where a chain is given by its changes, count along the chain named. Where two headings read alike, the source gives them in different places.

The target in assay [1] is T1, SARS-CoV-2 Spike protein receptor-binding domain (RBD) (SARS-CoV-2, UniProt P0DTC2 319-527). In words: BLI (Octet), IgG1 captured on anti-human Fc sensors, RBD in solution. As to Req: test concentration or dose not given here. As to Response: test concentration or dose not given here. As to kobs: test concentration or dose not given here.
Assay [2] deals with SARS-CoV-2 Spike as carried on rVSV-SARS-CoV-2 pseudovirus and authentic WT virus (SARS-CoV-2, UniProt P0DTC2 14-1273). In words: cell-based or functional assay.
Assay [3] has as its target T1, SARS-CoV-2 Spike protein …. In words: BLI (Octet Red96e), IgG captured on anti-human Fc sensors, RBD in solution.
Assay [4] addresses T1, SARS-CoV-2 Spike protein ….
The target in assay [5] is T1, SARS-CoV-2 Spike protein …. In words: BLI (Octet), IgG captured on anti-human Fc sensors, RBD in solution.

B1: AB-10 full-length IgG1 (humanized) (antibody, V domains shown)
VH: QVQLVQSGAEVKKPGASVKVSCKASGYTFTSYWMHWVRQAPGQGLEWMGAIYPGNGDTNYAQKFQGRVTMTADTSISTAYMELSRLRSDDTAVYYCTREGIPQLLNTLDVWGQGTLVTVSS
VL: DIQMTQSPSSLSASVGDRVTITCRASQEISGYLNWYQQKPGKAPKRLIYAASSLQSGVPSRFSGSGSGTDFTLTISSLQPEDFATYYCQQYLSYPWTFGQGTKVEIK
In assay [1], B1 had a Kd of 0.0254 µM, a Req of 0.102 nm shift, a Response of 0.114 nm shift and a kobs of 0.0151 s⁻¹. In addition, in assay [1], the koff stood at 0.00306 s⁻¹ and the association rate constant (kon) was 121000 M⁻¹ s⁻¹.

B2: AB-12 full-length IgG1 (humanized) (antibody, V domains shown)
VH: EVQLVQSGAEVKKPGESLKISCKASGYTFTTYWMHWVRQMPGKGLEWMGAIYPGNSDTRYSPSFQGQVTLSVDKSITTAYLQWNSLKASDTAMYFCTREGIPQLLRTLDYWGQGTLVTVSS
VL: B1 VL with E28G, N34S, Y36L, G41E, S53T, V104L
For the molecule B2, in assay [1], the Kd was determined as 0.0324 µM, the Req amounted to 0.135 nm shift, the Response was 0.145 nm shift and the kobs stood at 0.0149 s⁻¹. Further, in assay [1], the koff stood at 0.00366 s⁻¹ and the kon was 113000 M⁻¹ s⁻¹.

B3: AB-11 full-length IgG1 (humanized) (antibody, V domains shown)
VH: B2 VH with P14S, R59Q, V72A, T77S, N84S
VL: EIVLTQSPGTLSLSPGERATLSCRASQEISGYLAWLQQKPGQAPRRLIYAASSLATGIPDRFSGSGSGTDFTLTISRLEPEDFAVYYCLQYLSYPWTFGQGTKVEIK
For the molecule B3, in assay [1], the Kd came out at 0.0327 µM, the Req stood at 0.326 nm shift, the Response came out at 0.319 nm shift and the kobs was 0.0104 s⁻¹. Further, in assay [1], the koff was found to be 0.00255 s⁻¹ and the kon is 78000 M⁻¹ s⁻¹.

B4: AB-1 full-length IgG1 (antibody, V domains shown)
VH: EVQLEESGTVLARPGASVKMSCKASGYTFTTYWMHWIKQRPGQGLEWIGAIYPGNSDTQYNQKFKDKAKLTAVKSTSSAYMELSSLTNEDSAVYFCTREGIPQLLRTLDYWGQGTSVTVSS
VL: DILMTQSPSSLSASLGERVSLTCRASQEISGYLSWLQEKPDGTIKRLIYAASTLDSGVPKRFSGSRSGSDYSLTISSLESEDFADYYCLQYLSYPWTFGGGTKLEIK
For B4, in assay [2], the “Neutralization (ng/mL), Authentic Virus IC50” value turned out to be 78 ng/mL; the “Neutralization (ng/mL), Authentic Virus IC80” value worked out at 543 ng/mL; the “Neutralization (ng/mL), Pseudovirus IC50” value was found to be 0.0782 ng/mL; the “Neutralization (ng/mL), Pseudovirus IC80” value worked out at 2.6 ng/mL. For the same molecule, the “Neutralization (ng/mL), Pseudovirus IC90” value in assay [2] was determined as 9.56 ng/mL. In addition, in assay [1], the Kd amounted to 0.0159 µM, the Req was 0.388 nm shift, the Response stood at 0.364 nm shift and the kobs was determined as 0.00924 s⁻¹. In assay [1], this molecule yielded a koff of 0.00127 s⁻¹ and a kon of 79700 M⁻¹ s⁻¹. Further, in assay [3], the Kd worked out at 0.039 µM, the off-rate constant (koff) amounted to 0.0024 s⁻¹ and the on-rate constant (kon) stood at 62000 M⁻¹ s⁻¹. The Kd in assay [4] was found to be 0.0342 µM. This molecule also gave a Kd in assay [5] of 0.039 µM.

B5: AB-2 full-length IgG1 (antibody, V domains shown)
VH: B4 VH with S56G, Q59N
VL: B4 VL
On to B5, for which, in assay [2], the “Neutralization (ng/mL), Authentic Virus IC50” value was found to be 379 ng/mL; the “Neutralization (ng/mL), Authentic Virus IC80” value was 3030 ng/mL; the “Neutralization (ng/mL), Pseudovirus IC50” value was 9.65 ng/mL; the “Neutralization (ng/mL), Pseudovirus IC80” value is 35.2 ng/mL. In assay [2], the “Neutralization (ng/mL), Pseudovirus IC90” value amounted to 760 ng/mL. Binding in assay [4] was characterised by a dissociation constant (Kd) of 0.127 µM.

B6: AB-8 full-length IgG1 (antibody, V domains shown)
VH: B4 VH with Q59I
VL: B4 VL
For B6, in assay [2], the “Neutralization (ng/mL), Authentic Virus IC50” value turned out to be 222 ng/mL; the “Neutralization (ng/mL), Authentic Virus IC80” value stood at 1600 ng/mL; the “Neutralization (ng/mL), Pseudovirus IC50” value worked out at 0.792 ng/mL; the “Neutralization (ng/mL), Pseudovirus IC80” value was 3.34 ng/mL. The “Neutralization (ng/mL), Pseudovirus IC90” value in assay [2] turned out to be 7.6 ng/mL. The Kd in assay [4] was found to be 0.104 µM.

B7: AB-4 full-length IgG1 (antibody, V domains shown)
VH: B4 VH with S56G, Q59N, L108F
VL: B4 VL with S30G
In turn, B7 came in with an equilibrium dissociation constant (Kd) in assay [4] of 0.151 µM.

B8: AB-3 full-length IgG1 (antibody, V domains shown)
VH: B4 VH with S56G, Q59N, L104K, Y110V
VL: B4 VL
In the case of B8, in assay [2], the “Neutralization (ng/mL), Authentic Virus IC50” value was determined as 3550 ng/mL; the “Neutralization (ng/mL), Authentic Virus IC80” value was found to be 11100 ng/mL; the “Neutralization (ng/mL), Pseudovirus IC50” value came out at 17.6 ng/mL; the “Neutralization (ng/mL), Pseudovirus IC80” value amounted to 110 ng/mL. Moreover, the “Neutralization (ng/mL), Pseudovirus IC90” value in assay [2] was found to be 502 ng/mL. This molecule came in with a dissociation constant (Kd) in assay [4] of 0.177 µM.

B9: AB-6 full-length IgG1 (antibody, V domains shown)
VH: B4 VH with T31S, Q59N, L105T
VL: B4 VL
Regarding B9, in assay [2], the “Neutralization (ng/mL), Authentic Virus IC50” value is 25000 ng/mL; the “Neutralization (ng/mL), Authentic Virus IC80” value is 25000 ng/mL; the “Neutralization (ng/mL), Pseudovirus IC50” value came out at 6.15 ng/mL; the “Neutralization (ng/mL), Pseudovirus IC80” value turned out to be 27.2 ng/mL. Also, the “Neutralization (ng/mL), Pseudovirus IC90” value in assay [2] came out at 58.4 ng/mL. The Kd in assay [4] was 0.103 µM.

B10: AB-5 full-length IgG1 (antibody, V domains shown)
VH: B4 VH with T31S, S56G, Q59N, R106N, Y110V
VL: B4 VL with L89Q
With B10, in assay [2], the “Neutralization (ng/mL), Authentic Virus IC50” value is 260 ng/mL; the “Neutralization (ng/mL), Authentic Virus IC80” value turned out to be 2460 ng/mL; the “Neutralization (ng/mL), Pseudovirus IC50” value was determined as 8.25 ng/mL; the “Neutralization (ng/mL), Pseudovirus IC80” value came out at 35.2 ng/mL. In addition, the “Neutralization (ng/mL), Pseudovirus IC90” value in assay [2] turned out to be 71.1 ng/mL. In assay [1], this molecule yielded a Kd of 0.0413 µM, a Req of 0.318 nm shift, a Response of 0.315 nm shift and a kobs of 0.0117 s⁻¹. For the same molecule, in assay [1], the koff was 0.00341 s⁻¹ and the association rate constant (kon) stood at 82500 M⁻¹ s⁻¹. In assay [4], this molecule registered a dissociation constant (Kd) of 0.148 µM.

B11: AB-9 full-length IgG1 (antibody, V domains shown)
VH: B4 VH with T31S, Q59N, K74T
VL: B4 VL
For the molecule B11, in assay [2], the “Neutralization (ng/mL), Authentic Virus IC50” value turned out to be 100 ng/mL; the “Neutralization (ng/mL), Authentic Virus IC80” value was determined as 627 ng/mL; the “Neutralization (ng/mL), Pseudovirus IC50” value is 0.824 ng/mL; the “Neutralization (ng/mL), Pseudovirus IC80” value amounted to 4.14 ng/mL. Also, the “Neutralization (ng/mL), Pseudovirus IC90” value in assay [2] was 9.95 ng/mL. The molecule further yielded a Kd in assay [4] of 0.0988 µM.

B12: AB-7 full-length IgG1 (antibody, V domains shown)
VH: B4 VH with T31S, Q59N, T107S
VL: B4 VL
As to B12, in assay [2], the “Neutralization (ng/mL), Pseudovirus IC50” value was found to be 24.6 ng/mL. The same molecule yielded a dissociation constant (Kd) in assay [4] of 0.386 µM.
